Test results from paper PMC11399441.

Columns and labels:
CHX chase, western blot = details: control: untreated YTS-1 cells
[1] = IP and anti-ubiquitin western blot; details: glycan lost; control: untreated YTS-1 cells
[2] = western blot, YTS-1 cells; details: control: untreated YTS-1 cells

Substance | degradation_or_half_life (CHX chase, western blot; glycan lost) | other: ubiquitination [1] | expression_or_secretion ([2]; glycan lost) | degradation_or_half_life (CHX chase, western blot; glycan gained) | expression_or_secretion ([2]; glycan gained)
C1GalT1 (core1 β-1,3-galactosyltransferase, T-synthase): OSMI-1 | decreases | increases | decreases |  | 
C1GalT1 (core1 β-1,3-galactosyltransferase, T-synthase): PugNAc |  |  |  | increases | increases
